Values quoted from earlier work, collected in paper PMC7652413.
pKd: −log10 of the molar value.

Biological target: SARS-CoV-2 spike protein RBD (Severe acute respiratory syndrome coronavirus 2) (UniProt P0DTC2)
Test: SPR

## CD147 (basigin) (from UniProt P35613)
  pKd: 6.73
